For the assay, the target named is human paraoxonase (PON1A) (human) (UniProt P27169). In words: cell-based or functional assay.

The source of these data is patent US20030181372A1.

Chain of UniProt P27169 (P27169 2-355 limits assumed): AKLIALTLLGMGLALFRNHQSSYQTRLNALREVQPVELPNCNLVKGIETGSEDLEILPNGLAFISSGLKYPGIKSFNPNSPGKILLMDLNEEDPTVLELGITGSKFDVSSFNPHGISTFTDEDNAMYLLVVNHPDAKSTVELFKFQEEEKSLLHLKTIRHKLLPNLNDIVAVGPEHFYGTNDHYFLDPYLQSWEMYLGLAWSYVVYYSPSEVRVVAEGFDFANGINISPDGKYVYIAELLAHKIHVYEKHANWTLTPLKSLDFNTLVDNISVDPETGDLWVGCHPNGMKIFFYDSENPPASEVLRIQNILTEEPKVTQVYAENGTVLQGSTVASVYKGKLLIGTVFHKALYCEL

The substance recombinant human ApoA-I R27C displayed an arylesterase activity, CHO-PON cells cultured 24 h with 10 µg/mL ApoA-I (U/mg cell protein) of 0.125 and an increase in arylesterase activity compared to ApoA-IWT of 30%.

As to recombinant human ApoA-I R10C, the arylesterase activity, CHO-PON cells cultured 24 h with 10 µg/mL ApoA-I (U/mg cell protein) amounted to 0.126 and the increase in arylesterase activity compared to ApoA-IWT is 30%.

With “recombinant human ApoA-I R151C (ApoA-IParis)”, the secreted PON arylesterase activity, CHO-PON cells cultured 24 h with 10 µg/mL ApoA-I (U/mg cell protein) was determined as 0.086.

Substance “recombinant human ApoA-I R173C (ApoA-IMilano)” returned a secreted PON arylesterase activity, CHO-PON cells cultured 24 h with 10 µg/mL ApoA-I (U/mg cell protein) of 0.076.

In the case of recombinant human ApoA-I R61C, the arylesterase activity, CHO-PON cells cultured 24 h with 10 µg/mL ApoA-I (U/mg cell protein) was 0.121 and the increase in arylesterase activity compared to ApoA-IWT is 30%.

Substance recombinant human ApoA-I K96C came in with an arylesterase activity, CHO-PON cells cultured 24 h with 10 µg/mL ApoA-I (U/mg cell protein) of 0.067 and a reduction in arylesterase activity compared to ApoA-IWT of 30%.

Turning to “recombinant human ApoA-I wild type (His-6 tagged)”, the ApoA-I concentration at which secreted PON activity is maximal (CHO-PON cell medium) stood at 12 µg/mL; the PON activity of baseline conditioned medium incubated 3 h at 37° C. with 10 µg/mL lipid-free ApoA-I postculture (relative to baseline) was found to be 94.4%; the PON activity of cells grown with 10 µg/mL ApoA-I over cells grown without ApoA-I came out at 203%; the arylesterase activity in medium at 24 h, CHO-PON cells in the presence of 10 µg/mL ApoA-I (unit/mg of cell protein) was determined as 0.087. Also, the arylesterase activity, CHO-PON cells cultured 24 h with 10 µg/mL ApoA-I (U/mg cell protein) worked out at 0.095 and the increase in arylesterase activity on culturing CHO-PON cells with ApoA-I worked out at 2.1 fold.
